PMC5806898
Blank lines part the entries; values can stand above or below the molecule they belong to.

Columns and labels:
CD8-sortilin = CD8-sortilin (UniProt Q99523); assay: co-IP; native immunoprecipitation with anti-CD8 and protein A-Sepharose from HeLa cells expressing CD8-CIMPR or CD8-sortilin (control: HeLa cells); western blot, bands quantified with IMAGEJ, 3 repeats
CD8-CIMPR = CD8-CIMPR (UniProt P11717); assay: as above
Chain of UniProt P11717 (P11717 whole entry): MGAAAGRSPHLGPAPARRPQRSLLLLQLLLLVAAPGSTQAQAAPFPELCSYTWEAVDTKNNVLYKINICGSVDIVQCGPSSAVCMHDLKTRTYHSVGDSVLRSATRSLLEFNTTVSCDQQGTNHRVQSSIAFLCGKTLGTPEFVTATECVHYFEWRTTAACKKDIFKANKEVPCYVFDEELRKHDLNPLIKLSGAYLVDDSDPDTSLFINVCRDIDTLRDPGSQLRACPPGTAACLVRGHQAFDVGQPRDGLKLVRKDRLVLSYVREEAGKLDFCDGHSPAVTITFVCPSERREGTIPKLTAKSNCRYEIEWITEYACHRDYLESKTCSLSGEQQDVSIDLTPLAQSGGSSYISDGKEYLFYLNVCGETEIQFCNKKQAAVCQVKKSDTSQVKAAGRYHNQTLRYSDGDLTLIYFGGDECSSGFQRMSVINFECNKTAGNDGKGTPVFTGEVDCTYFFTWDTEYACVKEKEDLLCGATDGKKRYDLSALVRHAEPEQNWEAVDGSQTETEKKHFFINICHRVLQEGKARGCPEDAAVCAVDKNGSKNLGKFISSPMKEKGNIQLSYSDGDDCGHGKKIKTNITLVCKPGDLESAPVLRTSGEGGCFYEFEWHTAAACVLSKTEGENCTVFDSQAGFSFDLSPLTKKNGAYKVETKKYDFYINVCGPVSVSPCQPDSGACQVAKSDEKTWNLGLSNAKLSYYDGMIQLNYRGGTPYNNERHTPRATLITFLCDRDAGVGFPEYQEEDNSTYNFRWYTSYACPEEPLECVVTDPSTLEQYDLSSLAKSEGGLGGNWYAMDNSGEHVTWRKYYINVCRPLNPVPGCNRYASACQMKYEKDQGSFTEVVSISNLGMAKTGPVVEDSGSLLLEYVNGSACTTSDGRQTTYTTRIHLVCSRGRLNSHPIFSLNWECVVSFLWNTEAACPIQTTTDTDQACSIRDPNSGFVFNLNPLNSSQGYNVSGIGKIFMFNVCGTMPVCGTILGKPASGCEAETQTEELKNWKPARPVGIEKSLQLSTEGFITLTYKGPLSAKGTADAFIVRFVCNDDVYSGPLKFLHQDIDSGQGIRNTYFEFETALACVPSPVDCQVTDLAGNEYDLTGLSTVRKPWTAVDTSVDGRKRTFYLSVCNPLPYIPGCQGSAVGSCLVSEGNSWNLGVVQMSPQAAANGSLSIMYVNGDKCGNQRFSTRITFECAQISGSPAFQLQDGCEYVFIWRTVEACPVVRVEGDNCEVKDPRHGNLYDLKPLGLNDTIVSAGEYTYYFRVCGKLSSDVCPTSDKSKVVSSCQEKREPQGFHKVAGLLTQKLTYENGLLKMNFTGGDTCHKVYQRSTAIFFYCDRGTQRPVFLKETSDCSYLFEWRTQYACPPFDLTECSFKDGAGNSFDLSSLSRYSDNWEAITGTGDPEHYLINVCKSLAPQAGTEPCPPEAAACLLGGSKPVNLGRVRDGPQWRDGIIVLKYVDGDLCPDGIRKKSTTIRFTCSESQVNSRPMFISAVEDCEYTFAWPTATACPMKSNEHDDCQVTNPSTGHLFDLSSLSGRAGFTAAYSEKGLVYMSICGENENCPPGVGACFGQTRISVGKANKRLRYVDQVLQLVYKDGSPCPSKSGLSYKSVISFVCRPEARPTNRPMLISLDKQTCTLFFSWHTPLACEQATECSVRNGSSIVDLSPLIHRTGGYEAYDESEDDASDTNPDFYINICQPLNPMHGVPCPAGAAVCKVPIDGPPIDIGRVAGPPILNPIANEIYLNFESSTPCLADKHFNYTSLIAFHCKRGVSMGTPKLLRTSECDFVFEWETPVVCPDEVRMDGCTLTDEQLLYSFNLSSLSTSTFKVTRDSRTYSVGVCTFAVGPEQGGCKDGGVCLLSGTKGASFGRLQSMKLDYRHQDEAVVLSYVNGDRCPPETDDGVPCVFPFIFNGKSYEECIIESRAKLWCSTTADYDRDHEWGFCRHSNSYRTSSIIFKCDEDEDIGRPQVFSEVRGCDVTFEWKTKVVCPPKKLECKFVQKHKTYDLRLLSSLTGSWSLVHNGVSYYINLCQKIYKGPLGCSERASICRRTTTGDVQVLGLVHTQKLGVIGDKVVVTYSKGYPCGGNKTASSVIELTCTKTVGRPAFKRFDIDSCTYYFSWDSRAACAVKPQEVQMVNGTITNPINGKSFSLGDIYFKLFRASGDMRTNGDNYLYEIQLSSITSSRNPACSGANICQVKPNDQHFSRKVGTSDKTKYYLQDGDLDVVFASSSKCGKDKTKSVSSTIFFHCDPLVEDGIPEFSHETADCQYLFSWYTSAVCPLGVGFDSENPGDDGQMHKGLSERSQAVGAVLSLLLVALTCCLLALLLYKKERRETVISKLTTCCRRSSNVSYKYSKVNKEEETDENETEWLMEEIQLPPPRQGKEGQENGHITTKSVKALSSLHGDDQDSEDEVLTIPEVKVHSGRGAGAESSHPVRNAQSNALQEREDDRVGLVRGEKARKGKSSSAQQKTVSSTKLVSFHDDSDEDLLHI

- percent of input pulled down (CD8-sortilin): 0.05%
- percent of input pulled down (CD8-CIMPR): 0.1%
Molecule: AP-1 γ (from UniProt O43747 1-822) (natural protein)

- percent of input pulled down (CD8-sortilin): 0.15%
- percent of input pulled down (CD8-CIMPR): 0.15%
Molecule: SPG15 (from UniProt Q68DK2 1-2539) (natural protein)

- percent of input pulled down (CD8-sortilin): 0.23%
- percent of input pulled down (CD8-CIMPR): 0.08%
B1: AP-5 ζ subunit (natural protein)
chain: MFSAGAESLLHQAREIQDEELKKFCSRICKLLQAEDLGPDTLDSLQRLFLIISATKYSRRLEKTCVDLLQATLGLPACPEQLQVLCAAILREMSPSDSLSLAWDHTQNSRQLSLVASVLLAQGDRNEEVRAVGQGVLRALESRQPEGPSLRHLLPVMAKVVVLSPGTLQEDQATLLSKRLVDWLRYASLQQGLPHSGGFFSTPRARQPGPVTEVDGAVATDFFTVLSSGHRFTDDQWLNVQAFSMLRAWLLHSGPEGPGTLDTDDRSEQEGSTLSVISATSSAGRLLPPRERLREVAFEYCQRLIEQSNRRALRKGDSDLQKACLVEAVLVLDVLCRQDPSFLYRSLSCLKALHGRVRGDPASVRVLLPLAHFFLSHGEAAAVDSEAVYQHLFTRIPVEQFHSPMLAFEFIQFCRDNLHLFSGHLSTLRLSFPNLFKFLAWNSPPLTSEFVALLPALVDAGTALEMLHALLDLPCLTAVLDLQLRSAPAASERPLWDTSLRAPSCLEAFRDPQFQGLFQYLLRPKASGATERLAPLHQLLQPMAGCARVAQCAQAVPTLLQAFFSAVTQVADGSLINQLALLLLGRSDSLYPAPGYAAGVHSVLSSQFLALCTLKPSLVVELARDLLEFLGSVNGLCSRASLVTSVVWAIGEYLSVTYDRRCTVEQINKFFEALEALLFEVTQCRPSAALPRCPPQVVTVLMTTLTKLASRSQDLIPRASLLLSKMRTLAHSPATSSTHSEEGAEAIRTRATELLTLLKMPSVAQFVLTPSTEVCSPRYHRDANTALPLALRTVSRLVEREAGLMPG
